T1: full‐length UVR8 (recombinant) (Arabidopsis, UniProt Q9FN03 1-440)
T1 construct: UV … LOCUS 8 (UVR8) UV-B photoreceptor, Arabidopsis, full length; Dimer in the ground state; monomerized by 60 min UV-B on ice where the assay says so; not shown: His10, N-terminal, cleaved; Twin-Strep, N-terminal, cleaved
T1 sequence (looked up): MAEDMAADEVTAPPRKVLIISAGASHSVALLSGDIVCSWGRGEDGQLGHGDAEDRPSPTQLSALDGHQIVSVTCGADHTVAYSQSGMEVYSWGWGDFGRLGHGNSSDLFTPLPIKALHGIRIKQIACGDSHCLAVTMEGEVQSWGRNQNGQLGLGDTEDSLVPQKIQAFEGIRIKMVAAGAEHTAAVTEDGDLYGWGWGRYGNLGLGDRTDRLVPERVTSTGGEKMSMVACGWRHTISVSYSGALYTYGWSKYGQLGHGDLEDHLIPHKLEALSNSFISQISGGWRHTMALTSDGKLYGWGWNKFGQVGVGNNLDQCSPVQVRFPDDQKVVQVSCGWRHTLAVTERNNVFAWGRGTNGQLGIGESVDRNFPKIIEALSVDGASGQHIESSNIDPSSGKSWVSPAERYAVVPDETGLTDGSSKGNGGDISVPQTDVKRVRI

T2: UVR8^12–381 β‐propeller core (Arabidopsis, UniProt Q9FN03 12-381)
T2 construct: also called UVR8 β‐propeller core; UVR8 core domain; not shown: His10, N-terminal, cleaved; Twin-Strep, N-terminal, cleaved
T2 sequence (looked up): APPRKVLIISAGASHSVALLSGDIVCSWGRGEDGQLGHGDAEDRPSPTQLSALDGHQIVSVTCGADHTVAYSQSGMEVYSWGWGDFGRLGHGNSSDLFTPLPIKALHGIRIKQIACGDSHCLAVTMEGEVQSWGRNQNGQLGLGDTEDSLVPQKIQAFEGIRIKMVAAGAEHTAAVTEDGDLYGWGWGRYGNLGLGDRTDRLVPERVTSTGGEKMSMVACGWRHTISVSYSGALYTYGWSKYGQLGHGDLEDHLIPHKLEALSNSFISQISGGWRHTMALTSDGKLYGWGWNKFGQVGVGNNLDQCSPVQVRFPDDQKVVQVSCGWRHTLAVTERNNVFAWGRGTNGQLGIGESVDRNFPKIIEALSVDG

T3: UVR8^ValPro/AlaAla (recombinant) (Arabidopsis, UniProt Q9FN03 1-440, ValPro/AlaAla)
T3 construct: UVR8, Arabidopsis, Val-Pro of the C-terminal VP motif mutated to Ala-Ala; compared with the wild type (full-length) protein, monomer ~50 kDa; also called the mutant photoreceptor; not shown: His10, N-terminal, cleaved; Twin-Strep, N-terminal, cleaved
T3 sequence (looked up): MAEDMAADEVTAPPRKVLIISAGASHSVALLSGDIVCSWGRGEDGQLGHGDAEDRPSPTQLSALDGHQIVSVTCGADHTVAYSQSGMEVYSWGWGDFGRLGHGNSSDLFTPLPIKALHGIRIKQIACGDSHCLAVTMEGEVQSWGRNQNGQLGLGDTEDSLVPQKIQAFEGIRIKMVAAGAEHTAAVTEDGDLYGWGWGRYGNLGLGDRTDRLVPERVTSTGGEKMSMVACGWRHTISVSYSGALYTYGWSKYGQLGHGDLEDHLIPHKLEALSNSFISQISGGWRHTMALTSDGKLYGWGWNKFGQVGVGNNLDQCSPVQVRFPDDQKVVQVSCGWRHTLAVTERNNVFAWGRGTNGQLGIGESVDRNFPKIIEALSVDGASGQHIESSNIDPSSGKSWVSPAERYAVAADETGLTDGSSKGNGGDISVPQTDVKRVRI

T4: COP1^349–675,Lys422Ala WD40 domain (Arabidopsis, UniProt P43254 349-675, Lys422Ala)
T4 construct: COP1, Arabidopsis, WD40 domain, residues 349-675, Lys422Ala; also called COP1^Lys422Ala; not shown: His10, N-terminal, cleaved; Twin-Strep, N-terminal, cleaved
T4 sequence (looked up): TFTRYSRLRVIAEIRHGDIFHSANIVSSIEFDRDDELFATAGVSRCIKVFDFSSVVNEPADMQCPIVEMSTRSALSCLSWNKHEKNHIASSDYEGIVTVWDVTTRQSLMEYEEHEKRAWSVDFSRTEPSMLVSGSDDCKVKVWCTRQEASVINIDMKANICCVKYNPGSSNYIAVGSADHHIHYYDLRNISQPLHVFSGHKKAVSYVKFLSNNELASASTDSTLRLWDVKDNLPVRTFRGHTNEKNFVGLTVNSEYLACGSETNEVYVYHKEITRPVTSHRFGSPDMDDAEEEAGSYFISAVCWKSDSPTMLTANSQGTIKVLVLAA

T5: COP1^Tyr441Ala WD40 domain (Arabidopsis, UniProt P43254 349-675, Tyr441Ala)
T5 construct: COP1, Arabidopsis, WD40 domain (mutant of COP1 349-675), Tyr441Ala; not shown: His10, N-terminal, cleaved; Twin-Strep, N-terminal, cleaved
T5 sequence (looked up): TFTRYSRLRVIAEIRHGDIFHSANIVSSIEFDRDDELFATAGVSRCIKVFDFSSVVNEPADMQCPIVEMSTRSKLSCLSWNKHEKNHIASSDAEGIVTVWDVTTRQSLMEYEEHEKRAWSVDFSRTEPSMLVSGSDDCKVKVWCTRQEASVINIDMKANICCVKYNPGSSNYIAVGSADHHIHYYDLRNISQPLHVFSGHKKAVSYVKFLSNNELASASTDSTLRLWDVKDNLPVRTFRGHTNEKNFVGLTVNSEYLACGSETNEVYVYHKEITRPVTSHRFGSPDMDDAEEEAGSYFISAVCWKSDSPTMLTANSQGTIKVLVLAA

B1: Arabidopsis COP1^349–675 WD40 domain (domain or fragment, UniProt P43254 349-675, looked up)
chain: TFTRYSRLRVIAEIRHGDIFHSANIVSSIEFDRDDELFATAGVSRCIKVFDFSSVVNEPADMQCPIVEMSTRSKLSCLSWNKHEKNHIASSDYEGIVTVWDVTTRQSLMEYEEHEKRAWSVDFSRTEPSMLVSGSDDCKVKVWCTRQEASVINIDMKANICCVKYNPGSSNYIAVGSADHHIHYYDLRNISQPLHVFSGHKKAVSYVKFLSNNELASASTDSTLRLWDVKDNLPVRTFRGHTNEKNFVGLTVNSEYLACGSETNEVYVYHKEITRPVTSHRFGSPDMDDAEEEAGSYFISAVCWKSDSPTMLTANSQGTIKVLVLAA
notes: COP1 (CONSTITUTIVELY PHOTOMORPHOGENIC 1) E3 ubiquitin ligase, Arabidopsis, WD40 domain, residues 349-675; also called COP1 WD40 domain; COP1 WD40; not shown: His10, N-terminal, cleaved; Twin-Strep, N-terminal, cleaved

How the values were obtained:
Details in all cases: both partners purified
[1] = molecular target: T1, full‐length UVR8 (recombinant); assay: not stated; non-photoactivated (ground-state) full-length UVR8 versus COP1 WD40; Appendix Fig S4A, not shown (ITC or GCI)
[2] = molecular target: T2, UVR8^12–381 β‐propeller core; assay: not stated; UV-B-activated UVR8 forms versus COP1 WD40 and its mutants; Appendix Figs S4B, S4C, S6A, S6B, not shown (ITC or GCI)
[3] = molecular target: T3, UVR8^ValPro/AlaAla (recombinant); assay: SEC; analytical SEC, Superdex 200 Increase 10/300 GL; ~4 μM of each protein mixed; UVR8 form pre-monomerized by UV-B; 150 mM NaCl, 20 mM HEPES 7.4, 2 mM BME; fractions on Coomassie-stained SDS-PAGE
[4] = molecular target: B1; assay: ITC; VP peptide (titrant, 500-3,000 μM) injected into COP1 WD40 in the cell at about 10-fold lower concentration; 150 mM NaCl, 20 mM HEPES 7.4, 2 mM BME; 25°C; one-site binding model
[5] = molecular target: T4, COP1^349–675,Lys422Ala WD40 domain; assay: as above
[6] = molecular target: T5, COP1^Tyr441Ala WD40 domain; assay: as above

Kd [1]	Kd [2]	binding result [3]	Kd [4]	fold stronger binding than UVR8^406–413 [4]	stoichiometry N [5]	stoichiometry N [6]	Binder
~1000 nM	~500 nM	binds					B1
			~20 µM	~8 fold	0.83	0.92	EIRRVPEFGG (peptide, UniProt O24646 39-48, looked up, ELONGATED HYPOCOTYL 5 (HY5) bZIP transcription factor, residues 39-48 (holds Arg41, Glu45); also called HY5 VP peptide; HY5 peptide; source: synthetic peptide (Peptide Specialty Labs GmbH)) [HY5^39–48 VP peptide]

Source: paper PMC6745501, “Plant photoreceptors and their signaling components compete for COP1 binding via VP peptide motifs” (The EMBO Journal, 2019)
